Data as given in PMC5983913 (Science Advances, 2018).
Like-named read-outs stand apart in the source and are kept apart here.

T1: N-terminal His-tagged LsrK (E. coli, UniProt P77432 1-530)
T1 sequence (looked up): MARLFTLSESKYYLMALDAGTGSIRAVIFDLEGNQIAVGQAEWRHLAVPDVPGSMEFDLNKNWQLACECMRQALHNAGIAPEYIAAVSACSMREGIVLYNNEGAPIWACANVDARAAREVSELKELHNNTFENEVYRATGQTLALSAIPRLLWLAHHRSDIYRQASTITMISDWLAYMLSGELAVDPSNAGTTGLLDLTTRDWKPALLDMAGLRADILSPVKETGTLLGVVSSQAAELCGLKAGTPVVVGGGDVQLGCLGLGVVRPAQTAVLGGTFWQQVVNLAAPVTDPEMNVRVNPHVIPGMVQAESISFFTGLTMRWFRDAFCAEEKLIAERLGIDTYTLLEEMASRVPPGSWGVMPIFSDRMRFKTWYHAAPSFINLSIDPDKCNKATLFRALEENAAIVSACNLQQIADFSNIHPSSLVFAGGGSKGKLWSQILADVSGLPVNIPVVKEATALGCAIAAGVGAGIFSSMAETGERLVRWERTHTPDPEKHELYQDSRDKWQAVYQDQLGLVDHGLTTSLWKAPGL

B1: C-terminal six-His-tagged HPr H15E (natural protein)
chain: not shown
B2: phosphorylated HPr (natural protein)
chain: not shown
modifications: phosphate group at the H15-ND1 atom (phosphohistidine 15); ^15N-labelled
B3: native HPr protein (expressed alone, intact form) (natural protein)
chain: not shown

Tests used:
[1] = biological target: T1, N-terminal His-tagged LsrK; experiment: enzyme inhibition kinetics
[2] = biological target: T1, N-terminal His-tagged LsrK; experiment: enzyme inhibition kinetics; remark: listed apart in the source

Row | Binder | Ki [1] [µM] | fold lower inhibition activity than WT HPr [1] [fold] | Ki [2] [µM]
1 | B1 | 1.2 ± 0.2 | ~5 | 
2 | B2 |  |  | 8.4 ± 0.5
3 | B3 |  |  | 0.32 ± 0.07
